Measurements reported in patent US20260167699A1 (Chugai, published 2026).
Positions count from the first letter of the chain named.

B1: GpH7-A5/GpH7-B3 variant S239_02A/GpL16-k0 (antibody, human IgG1, kappa)
heavy 1: not shown
heavy 2: not shown
light: DIVMTQSPLSLPVTPGEPASISCQASESLVHSNRNTYLHWYLQKPGQSPQLLIYKVSNRFSGVPDRFSGSGSGTDFTLKISRVEAEDVGVYYCSQNTHVPPTFGQGTKVEIERTVAAPSVFIFPPSDEQLKSGTASVVCLLNNFYPREAKVQWKVDNALQSGNSQESVTEQDSKDSTYSLSSTLTLSKADYEKHKVYACEVTHQGLSSPVTKSFNRGEC
B2: GpH7-A5/GpH7-B3 variant S324_14T/GpL16-k0 (antibody, human IgG1, kappa)
heavy 1: not shown
heavy 2: not shown
light: B1 light
notes: He Ab: heterodimerized IgG1, one H chain mutated
B3: GpH7-A5/GpH7-B3 variant S239_10E/GpL16-k0 (antibody, human IgG1, kappa)
heavy 1: not shown
heavy 2: not shown
light: B1 light
B4: GpH7-A5/GpH7-B3 variant S267_02A/GpL16-k0 (antibody, human IgG1, kappa)
heavy 1: not shown
heavy 2: not shown
light: B1 light
B5: GpH7-A5/GpH7-B3 variant V266_07I/GpL16-k0 (antibody, human IgG1, kappa)
heavy 1: not shown
heavy 2: not shown
light: B1 light
B6: GpH7-A5/GpH7-B3 variant A327_05P/GpL16-k0 (antibody, human IgG1, kappa)
heavy 1: not shown
heavy 2: not shown
light: B1 light
notes: as for B2
B7: GpH7-A5/GpH7-B3 variant A327_09D/GpL16-k0 (antibody, human IgG1, kappa)
heavy 1: not shown
heavy 2: not shown
light: B1 light
notes: as for B2
B8: GpH7-A5/GpH7-B3 variant S239_07I/GpL16-k0 (antibody, human IgG1, kappa)
heavy 1: not shown
heavy 2: not shown
light: B1 light
B9: GpH7-A5/GpH7-B3 variant S267_01G/GpL16-k0 (antibody, human IgG1, kappa)
heavy 1: not shown
heavy 2: not shown
light: B1 light
B10: GpH7-A5/GpH7-B3 variant S239_03V/GpL16-k0 (antibody, human IgG1, kappa)
heavy 1: not shown
heavy 2: not shown
light: B1 light
B11: GpH7-A5/GpH7-B3 variant S239_19Q/GpL16-k0 (antibody, human IgG1, kappa)
heavy 1: not shown
heavy 2: not shown
light: B1 light
B12: GpH7-A5/GpH7-B3 variant S267_19Q/GpL16-k0 (antibody, human IgG1, kappa)
heavy 1: not shown
heavy 2: not shown
light: B1 light
B13: GpH7-A5/GpH7-B3 variant S239_14T/GpL16-k0 (antibody, human IgG1, kappa)
heavy 1: not shown
heavy 2: not shown
light: B1 light
B14: GpH7-A5/GpH7-B3 variant S239_06M/GpL16-k0 (antibody, human IgG1, kappa)
heavy 1: not shown
heavy 2: not shown
light: B1 light
B15: GpH7-A5/GpH7-B3 variant S239_18N/GpL16-k0 (antibody, human IgG1, kappa)
heavy 1: not shown
heavy 2: not shown
light: B1 light
B16: GpH7-A5/GpH7-B3 variant A327_06M/GpL16-k0 (antibody, human IgG1, kappa)
heavy 1: not shown
heavy 2: not shown
light: B1 light
notes: as for B2
B17: GpH7-A5/GpH7-B3 variant V266_02A/GpL16-k0 (antibody, human IgG1, kappa)
heavy 1: not shown
heavy 2: not shown
light: B1 light
B18: GpH7-A5/GpH7-B3 variant V266_06M/GpL16-k0 (antibody, human IgG1, kappa)
heavy 1: not shown
heavy 2: not shown
light: B1 light
B19: GpH7-A5/GpH7-B3 variant S239_09D/GpL16-k0 (antibody, human IgG1, kappa)
heavy 1: not shown
heavy 2: not shown
light: B1 light
B20: GpH7-A5/GpH7-B3 variant S239_08L/GpL16-k0 (antibody, human IgG1, kappa)
heavy 1: not shown
heavy 2: not shown
light: B1 light
B21: GpH7-A5/GpH7-B3 variant S267_09D/GpL16-k0 (antibody, human IgG1, kappa)
heavy 1: not shown
heavy 2: not shown
light: B1 light
B22: GpH7-A5/GpH7-B3 variant V266_08L/GpL16-k0 (antibody, human IgG1, kappa)
heavy 1: not shown
heavy 2: not shown
light: B1 light
B23: GpH7-A5/GpH7-B3 variant S267_10E/GpL16-k0 (antibody, human IgG1, kappa)
heavy 1: not shown
heavy 2: not shown
light: B1 light

Assays:
[1] = molecular target: T1, FcγRIIa(R) extracellular domain, His-tagged (human, UniProt P12318 34-217); assay: SPR, vs GpH7-A5/GpH7-B3/GpL16-k0 =100
T1 construct: extracellular domain; also called 2aR
T1 sequence: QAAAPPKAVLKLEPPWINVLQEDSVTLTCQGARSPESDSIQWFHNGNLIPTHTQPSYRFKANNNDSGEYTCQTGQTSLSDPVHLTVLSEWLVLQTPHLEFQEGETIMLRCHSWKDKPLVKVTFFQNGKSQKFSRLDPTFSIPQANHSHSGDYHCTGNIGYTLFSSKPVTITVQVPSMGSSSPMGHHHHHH

[2] = molecular target: T2, FcγRIIb extracellular domain, His-tagged (human, UniProt P31994 43-217); assay: SPR, vs GpH7-A5/GpH7-B3/GpL16-k0 =100
T2 construct: extracellular domain; also called 2b
T2 sequence: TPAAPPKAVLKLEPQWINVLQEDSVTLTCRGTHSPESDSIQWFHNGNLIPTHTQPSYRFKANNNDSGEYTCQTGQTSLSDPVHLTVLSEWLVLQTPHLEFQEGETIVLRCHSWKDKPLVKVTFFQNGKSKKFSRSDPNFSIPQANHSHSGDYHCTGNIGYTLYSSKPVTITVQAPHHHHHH

[3] = molecular target: T3, FcγRIa extracellular domain, His-tagged (human, UniProt P12314 16-292); assay: SPR, vs GpH7-A5/GpH7-B3/GpL16-k0 =100
T3 construct: extracellular domain; also called 1a
T3 sequence (P12314 other isoform, or with tags, fused parts or gaps): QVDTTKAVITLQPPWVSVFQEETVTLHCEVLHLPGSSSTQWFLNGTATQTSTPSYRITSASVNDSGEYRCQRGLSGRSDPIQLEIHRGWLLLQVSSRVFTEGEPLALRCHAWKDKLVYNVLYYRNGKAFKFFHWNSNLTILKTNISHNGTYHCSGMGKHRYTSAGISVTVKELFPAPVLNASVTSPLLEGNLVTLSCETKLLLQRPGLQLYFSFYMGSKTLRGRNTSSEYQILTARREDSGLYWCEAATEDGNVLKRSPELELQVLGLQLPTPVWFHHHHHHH

[4] = molecular target: T4, FcγRIIa(H) extracellular domain, His-tagged (human, UniProt P12318 34-217); assay: SPR, vs GpH7-A5/GpH7-B3/GpL16-k0 =100
T4 construct: extracellular domain; also called 2aH
T4 sequence: T1 sequence with R134H

[5] = molecular target: T5, FcγRIIIa extracellular domain, His-tagged (human, UniProt P08637 17-208); assay: SPR, vs GpH7-A5/GpH7-B3/GpL16-k0 =100
T5 construct: extracellular domain; also called 3a
T5 sequence (P08637 other isoform, or with tags, fused parts or gaps): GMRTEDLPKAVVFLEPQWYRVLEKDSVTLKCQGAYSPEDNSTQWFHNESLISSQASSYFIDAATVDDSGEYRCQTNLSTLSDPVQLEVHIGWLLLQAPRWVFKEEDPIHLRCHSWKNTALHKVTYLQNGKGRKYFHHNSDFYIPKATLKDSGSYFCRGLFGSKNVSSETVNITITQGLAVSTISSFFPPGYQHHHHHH

[6] = molecular target: T6, FcγRIa (human, UniProt P12314 16-292); assay: SPR, relative to GpH7-A5/GpH7-B3/GpL16-k0 =100
T6 construct: extracellular domain; also called 1a
T6 sequence (P12314 other isoform, or with tags, fused parts or gaps): as the sequence (P12314 other isoform, or with tags, fused parts or gaps) above

[7] = molecular target: T7, FcγRIIa(R) (human, UniProt P12318 34-217); assay: SPR, relative to GpH7-A5/GpH7-B3/GpL16-k0 =100
T7 construct: extracellular domain; also called 2aR
T7 sequence: T1 sequence

[8] = molecular target: T8, FcγRIIa(H) (human, UniProt P12318 34-217); assay: SPR, relative to GpH7-A5/GpH7-B3/GpL16-k0 =100
T8 construct: extracellular domain; also called 2aH
T8 sequence: T1 sequence with R134H

[9] = molecular target: T9, FcγRIIb (human, UniProt P31994 43-217); assay: SPR, relative to GpH7-A5/GpH7-B3/GpL16-k0 =100
T9 construct: extracellular domain; also called 2b
T9 sequence: T2 sequence

Row | Binder | He/Con 2aR [1] | He/Con 2b [2] | He/Con 1a [3] | He/Con 2aH [4] | He/Con 3a [5] | He/Con 1a [6] | He/Con 2aR [7] | He/Con 2aH [8] | He/Con 2b [9]
1 | B1 | 89.8 % of control | 91.6 % of control | 103 % of control | 89.9 % of control | 70.9 % of control |  |  |  | 
2 | B2 |  |  |  |  |  | 114% | 93.9% | 107% | 115%
3 | B3 | 127 % of control | 183 % of control | 108 % of control | 108 % of control | 171 % of control |  |  |  | 
4 | B4 | 167 % of control | 256 % of control | 105 % of control | 121 % of control | 149 % of control |  |  |  | 
5 | B5 | 129 % of control | 160 % of control | 96.1 % of control | 107 % of control | 113 % of control |  |  |  | 
6 | B6 |  |  |  |  |  | 102% | 80.6% | 67.9% | 86.3%
7 | B7 |  |  |  |  |  | 105% | 159% | 124% | 214%
8 | B8 | 95.9 % of control | 108 % of control | 101 % of control | 88.5 % of control | 75 % of control |  |  |  | 
9 | B9 | 121 % of control | 110 % of control | 99.9 % of control | 72.1 % of control | 53.3 % of control |  |  |  | 
10 | B10 | 94.1 % of control | 110 % of control | 98.9 % of control | 88 % of control | 72.4 % of control |  |  |  | 
11 | B11 | 79.8 % of control | 87.3 % of control | 104 % of control | 80 % of control | 53.8 % of control |  |  |  | 
12 | B12 | 145 % of control | 228 % of control | 99.2 % of control | 61.9 % of control | 64.3 % of control |  |  |  | 
13 | B13 | 97.4 % of control | 98.6 % of control | 104 % of control | 95.9 % of control | 93 % of control |  |  |  | 
14 | B14 | 94.7 % of control | 102 % of control | 102 % of control | 95.4 % of control | 73.9 % of control |  |  |  | 
15 | B15 | 104 % of control | 121 % of control | 104 % of control | 91.1 % of control | 104 % of control |  |  |  | 
16 | B16 |  |  |  |  |  | 106% | 80% | 89.3% | 74.1%
17 | B17 | 88.8 % of control | 85.1 % of control | 93.8 % of control | 69.7 % of control | 56.8 % of control |  |  |  | 
18 | B18 | 161 % of control | 264 % of control | 96.5 % of control | 84.8 % of control | 84.9 % of control |  |  |  | 
19 | B19 | 129 % of control | 209 % of control | 104 % of control | 111 % of control | 156 % of control |  |  |  | 
20 | B20 | 114 % of control | 142 % of control | 103 % of control | 101 % of control | 90 % of control |  |  |  | 
21 | B21 | 186 % of control | 326 % of control | 106 % of control | 107 % of control | 179 % of control |  |  |  | 
22 | B22 | 152 % of control | 248 % of control | 94.9 % of control | 106 % of control | 117 % of control |  |  |  | 
23 | B23 | 188 % of control | 398 % of control | 102 % of control | 103 % of control | 90.9 % of control |  |  |  | 
